# Measurements as given in patent publication US6824994B2, “Peptide ligands that mimic sensor kinases and inhibit response regulators” (priority 2000, dated 2004).
# “Also recorded” adds a separate entry of the source.
# How the values were obtained:
# VanR = molecular target: T1, VanR (Enterococcus faecium, UniProt Q06239); assay: Phage ELISA of phage-displayed peptides binding to immobilised VanR; settings: cloned N-terminal regulatory domain of VanR
# T1 construct: GST (N, cleaved yes); made in house; host or cells: E. coli BL21 lambda DE3 (pGEX-2TK)
# T1 sequence (Q06239 whole entry, the tested form may be a part): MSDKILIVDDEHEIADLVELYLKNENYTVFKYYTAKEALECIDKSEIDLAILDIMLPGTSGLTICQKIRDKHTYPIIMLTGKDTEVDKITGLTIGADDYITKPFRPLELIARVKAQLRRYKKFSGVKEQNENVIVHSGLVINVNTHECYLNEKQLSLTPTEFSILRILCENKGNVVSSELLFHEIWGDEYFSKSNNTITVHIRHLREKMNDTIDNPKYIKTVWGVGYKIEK
# Procedure: Phage Display. Phage display was performed using the methods described by A. Sparks et al., Phage Display Of Peptides And Proteins; A Laboratory Manual (1996). Microtiter plate wells were coated with purified VanR and used to select binding phage from a library displaying combinatorial peptides, i.e., 10 random NNK codons followed by a Cys codon, TGC, in the eleventh position (N is A, G, C, or T, and K is G or T). After three rounds of selection, the binding of individual phage clones to the VanR target protein was assessed by phage-ELISA using an anti-M13 phage monoclonal antibody-horseradish peroxidase conjugate (Pharmacia). Ninety-six phage plaques were picked from the third round of selection and tested for their ability to bind to VanR and to BSA, by phage ELISA, to determine levels of specific and background binding, respectively.
# For inserting determinants for desired peptide sequences into phage M13 DNA, oligonucleotides encoding the defined peptide sequences were cloned into the XhoI and XbaI sites within gene III of bacteriophage M13. The resulting recombinant phage were then tested for binding to various protein targets, immobilized within microtiter plate wells, by phage ELISA. […]
# Sequence Analysis of Combinatorial Peptides. […] The deduced peptide sequences were further analyzed by alignment with the amino acid sequence of VanS using the program MultAlin. […]
# VanR˜P-PVanH complex = molecular target: T2, VanR˜P-PVanH complex (Enterococcus faecium, UniProt Q06239); assay: Gel shift analysis of VanR˜P binding to PVanH DNA; type: biochemical
# T2 construct: GST (N, cleaved yes); made in house; host or cells: E. coli BL21 lambda DE3 (pGEX-2TK); phosphorylated with lithium acetyl phosphate
# T2 sequence (Q06239 whole entry, one chain of several): as the sequence (Q06239 whole entry, the tested form may be a part) above
# Procedure: (§1) Amplification and 5′-End-Labeling of PVanH DNA. A 254 bp DNA fragment containing the PVanH promoter region (residues −191 to 63) was obtained by PCR as described by T. Holman et al., 33 Biochem. 4625-4631 (1994) using a boiled cell preparation of En. faecium A634 as the template source. Amplified PVanH promoter DNA was 5′-end-labeled with [γ-32 P]ATP (specific activity of […]) and phage T4 polynucleotide kinase. The reaction mixture was incubated for 30 minutes at 37° C., and unincorporated ATP was removed by centrifugal gel filtration (Sephadex G-50 spin column, Amersham Pharmacia Biotech).
# Phosphorylation of VanR with Acetyl Phosphate. VanR was phosphorylated as described previously in T. Holman et al., 33 Biochem. 4625-4631 (1994). The reaction was performed in a total volume of 100 μL which contained 50 mM HEPES (pH 7.2), 5 mM MgCl2, 50 mM lithium acetyl phosphate, and 9 μM VanR. […]
# Gel Shift Analysis of VanR ˜P Binding to PVanH DNA. VanR-PVanH complexes were quantified by gel shift analysis as described by T. Holman et al., 33 Biochem. 4625-4631 (1994). […]
# (§2) To start the reaction, ^32P-labeled PVanH promoter probe DNA (0.65 ng in 1 μL) was added, and the reaction mixture was incubated on ice for 15 minutes. The resultant VanR˜P-PVanH complexes were analyzed by nondenaturing PAGE. […]
# VanR-PVanH complex = molecular target: T3, VanR-PVanH complex (Enterococcus faecium, UniProt Q06239); assay: Inhibition of the interaction between 32P-labeled PVanH promoter DNA and VanR; type: biochemical; settings: chemically synthesized peptide in disulfide form; 32P-labeled PVanH DNA segment
# T3 construct: GST (N, cleaved yes); made in house; host or cells: E. coli BL21 lambda DE3 (pGEX-2TK)
# T3 sequence (Q06239 whole entry, one chain of several): as the sequence (Q06239 whole entry, the tested form may be a part) above
# Procedure: as §1
# Gel Shift Analysis of VanR ˜P Binding to PVanH DNA. VanR-PVanH complexes were quantified by gel shift analysis as described by T. Holman et al., 33 Biochem. 4625-4631 (1994). Complexes were formed in a total volume of 15 μL which contained 4 pmol of VanR-P, which was preincubated with the appropriate effector peptides (as aqueous solutions) for 10 minutes at room temperature in 20 mM HEPES (pH 7.2), 5 mM MgCl2, 0.1 mM Na2EDTA, 0.5 mM CaCl2, 10% glycerol, and 0.5 μg of salmon sperm DNA.
# as §2, with “PAGE. See generally J. Sambrook et al., Molecular Cloning: A Laboratory Manual, 2nd Ed.” for “PAGE.”
# [1] = molecular target: T4, phosphoryl transfer from P˜VanS to PhoB (Escherichia coli, UniProt P0AFJ5); assay: Phosphotransferase assay, phosphoryl transfer from P˜VanS to PhoB; type: biochemical; settings: peptide at 1 mM
# T4 construct: GST (N, cleaved yes); made in house; host or cells: E. coli BL21 lambda DE3 (pGEX-2TK)
# T4 sequence (P0AFJ5 whole entry): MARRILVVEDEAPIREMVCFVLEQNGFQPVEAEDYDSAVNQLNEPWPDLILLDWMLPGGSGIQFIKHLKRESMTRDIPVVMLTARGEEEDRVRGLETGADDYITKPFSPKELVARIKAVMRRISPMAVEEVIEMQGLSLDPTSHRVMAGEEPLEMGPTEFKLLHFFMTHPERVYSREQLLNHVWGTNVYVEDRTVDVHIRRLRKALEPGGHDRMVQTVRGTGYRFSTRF
# Procedure: Phosphotransferase Assay. VanSc-GST (4 pmol) was labeled for 60 minutes at room temperature in a 5 μL volume containing, 50 mM Tris-HCl (pH 7.4), 5 mM MgCl2, and 100 mM KCl. The reaction was initiated by addition of 1 μL of 200 μM [γ-^32P]ATP which contained 1 μCi. After 60 minutes, the 5 μL reaction mixture was added to a 15 μL reaction mixture containing 80 pmol of PhoB and 2.5 mM PMSF all in the same buffer, with the appropriate peptide at a final concentration of 1 mM. Reactions were stopped by the addition of 10 μL of SDS gel loading buffer, and the resultant mixture was fractionated by SDS-PAGE. Phosphoproteins were assessed autoradiographically with a phosphorimager, as previously described.
Substance,binding to the regulatory domain of VanR (VanR),inhibition of the binding of VanR˜P to DNA segment of cognate promoter PVanH (VanR˜P-PVanH complex),inhibition of the interaction between VanR and PVanH (VanR-PVanH complex),inhibition of phosphoryl transfer from VanS˜P to PhoB [1]
SEQ ID NO. 1: dodecamer peptide selected from a combinatorial phage-display library for binding to VanR; contains two Cys residues (SLCHDSVIGWEC),"localized to the N-terminal, regulatory domain of VanR; also recorded: bound reproducibly to the cloned regulatory domain of VanR preferentially",found to inhibit the binding of VanR˜P,inhibited the interaction between VanR and PVanH,
"SEQ ID NO. 2: modified peptide derived from SEQ ID NO. 1, more closely resembling VanS; the two Cys replaced with Ala and Ser (SLAHDSIIGYLS)",,found to inhibit the binding of VanR˜P,,inhibited phosphoryl transfer
